Laboratory results: publication PMC5472690, “3-Hydroxybenzoate 6-Hydroxylase from Rhodococcus jostii RHA1 Contains a Phosphatidylinositol Cofactor” (Frontiers in Microbiology, 2017)

Legend:
[1] = target: T1, Rj3HB6H (Rhodococcus jostii, UniProt Q0SFK6); assay: X-ray crystal structure, […] Å; format: binding; conditions: pH 8.5 precipitant; co-bound phospholipid
T1 construct: gene RHA1_ro01869; full length, C-terminal His6 tag, produced in R. jostii RHA1#2; N-terminal Met lacking; 46,761 Da subunit; homodimer

[2] = tested on: O=C(O)c1cccc(O)c1; assay: purified protein; conditions: fixed NADH, 50 mM Tris-SO4, pH 8.0, 25°C
[3] = substrate: NC(=O)C1=CN([C@@H]2O[C@H](COP(=O)(O)OP(=O)(O)OC[C@H]3O[C@@H](n4cnc5c(N)ncnc54)[C@H](O)[C@@H]3O)[C@@H](O)[C@H]2O)C=CC1; assay: purified protein; conditions: fixed 3-hydroxybenzoate, 50 mM Tris-SO4, pH 8.0, 25°C

Cc1cc2nc3c(=O)[nH]c(=O)nc-3n(C[C@H](O)[C@H](O)[C@H](O)COP(=O)(O)OP(=O)(O)OC[C@H]3O[C@@H](n4cnc5c(N)ncnc54)[C@H](O)[C@@H]3O)c2cc1C [FAD]
X-ray crystal structure, 2.3 Å [1]: The isoalloxazine moiety of FAD was refined with full occupancy

Rj3HB6H (Rhodococcus jostii RHA1)
Km [2]: 35 ± 3 µM | kcat [2]: 20 ± 1 s⁻¹

B1: Rj3HB6H (Rhodococcus jostii RHA1) (protein)
chain: SNLQDARIIIAGGGIGGAANALALAQKGANVTLFERASEFGEVGAGLQVGPHGARILDSWGVLDDVLSRAFLPKNIVFRDAITAEVLTKIDLGSEFRGRYGGPYFVTHRSDLHATLVDAARAAGAELHTGVTVTDVITEGDKAIVSTDDGRTHEADIALGMDGLKSRLREKISGDEPVSSGYAAYRGTTPYRDVELDEDIEDVVGYIGPRCHFIQYPLRGGEMLNQVAVFESPGFKNGIENWGGPEELEQAYAHCHENVRRGIDYLWKDRWWPMYDREPIENWVDGRMILLGDAAHPPLQYLASGAVMAIEDAKCLADYAAEDFSTGGNSAWPQILKEVNTERAPRCNRILTTGRMWGELWHLDGTARIARNELFRTRDTSSYKYTDWLWGYSSDRAS
Km [3]: 68 ± 5 µM | kcat [3]: 20 ± 1 s⁻¹
